IntAct's records for PubMed 14707132

Target: pak1_rat Pak1 (UniProt P35465)
Sequence (P35465 whole entry): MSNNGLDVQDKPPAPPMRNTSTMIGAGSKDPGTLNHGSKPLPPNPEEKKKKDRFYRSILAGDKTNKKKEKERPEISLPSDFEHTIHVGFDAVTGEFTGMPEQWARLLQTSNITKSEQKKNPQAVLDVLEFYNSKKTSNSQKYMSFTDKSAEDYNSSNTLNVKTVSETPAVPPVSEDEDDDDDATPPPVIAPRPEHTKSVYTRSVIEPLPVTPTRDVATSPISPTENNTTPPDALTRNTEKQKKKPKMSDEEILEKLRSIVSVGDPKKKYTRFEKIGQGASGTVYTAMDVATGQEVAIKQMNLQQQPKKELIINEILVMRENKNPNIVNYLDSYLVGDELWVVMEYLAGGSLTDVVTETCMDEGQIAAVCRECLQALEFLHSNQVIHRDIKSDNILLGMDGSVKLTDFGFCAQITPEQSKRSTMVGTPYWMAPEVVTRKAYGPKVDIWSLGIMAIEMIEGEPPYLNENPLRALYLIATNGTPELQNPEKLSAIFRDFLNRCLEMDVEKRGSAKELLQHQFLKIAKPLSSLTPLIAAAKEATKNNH

Chain of Serine/threonine-protein kinase OSR1 (Homo sapiens), O95747 K46A (O95747 whole entry K46A): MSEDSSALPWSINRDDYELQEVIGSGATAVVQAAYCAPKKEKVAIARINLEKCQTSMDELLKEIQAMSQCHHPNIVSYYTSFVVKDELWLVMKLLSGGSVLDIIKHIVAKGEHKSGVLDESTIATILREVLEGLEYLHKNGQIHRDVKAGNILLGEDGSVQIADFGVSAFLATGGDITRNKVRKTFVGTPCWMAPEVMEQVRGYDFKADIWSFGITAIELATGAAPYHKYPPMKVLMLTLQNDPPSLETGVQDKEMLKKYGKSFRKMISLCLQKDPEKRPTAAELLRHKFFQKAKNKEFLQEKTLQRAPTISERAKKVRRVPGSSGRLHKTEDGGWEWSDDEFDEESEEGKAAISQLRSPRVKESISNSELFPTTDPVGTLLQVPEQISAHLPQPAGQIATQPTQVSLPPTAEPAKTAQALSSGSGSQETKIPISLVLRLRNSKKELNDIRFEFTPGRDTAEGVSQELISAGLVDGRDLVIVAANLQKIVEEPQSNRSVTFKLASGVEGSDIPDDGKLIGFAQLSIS

With “Serine/threonine-protein kinase OSR1 (Homo sapiens), O95747 K46A” as the substance, how does the “effect of a mutation on the interaction” value read?
Its value is “decreasing interaction”.
